No end group written: not given here.
What was measured:
Type in all cases: cell-based
[1] = system: TfnR uptake via CME in ARPE/HPV cells; assay: TfnR uptake (in-cell ELISA) after peptide preincubation; settings: 60-min preincubation with peptide at 37°C, concentration curves, n = 4 replicates (Fig. 7 F), read-out: IC50 for inhibition of TfnR uptake
Experimental: Peptides encoding the TAT sequence (YGRKKRRQRRR) followed by 10 amino acid sequences covering the four reported binding sites on the clathrin terminal domain (Fig. 7 A) were synthesized by GenScript (Piscataway, NJ) with >95% purity. Peptides were dissolved in dH2O and further diluted in PBS4+ (1× PBS buffer plus 0.2% BSA, 1 mM CaCl2, 1 mM MgCl2, and 5 mM D-glucose) or cell culture medium (for imaging) when applied to cells. Peptide solutions were stored at −20°C.
(§1) Internalization of TfnR, CD44, CD59, and Biotin-Tfn was quantified by in-cell ELISA following established protocols ([Conner and Schmid, 2003]; [Srinivasan et al., 2018]). Cells were seeded in 96-well plates (Costar) at 60–70% confluence and grown overnight. Before the assay, cells were starved for 30 min in PBS4+ at 37°C or treated with peptides in PBS4+ at 37°C for the indicated times. After starvation, cells were moved to 4°C, and culture medium was replaced with cold PBS4+ containing 5 µg/ml HTR-D65 (anti-TfnR mAb; [Schmid and Smythe, 1991]), anti-human CD44 or anti-human CD59 (BD PharMingen) or 5 µg/ml Biotin-Tfn (Sigma-Aldrich). For single-round assays, the above reagents were kept with cells for 20 min at 4°C and then washed out before uptake assay. For multiround assays, the above reagents were kept with cells throughout the uptake process. In parallel, some cells were kept at 4°C for the measurement of surface-bound ligands and blank controls, and some were incubated in a 37°C water bath for the indicated times. Acid wash (0.2 M acetic acid and 0.2 M NaCl, pH 2.3) was used to remove surface-bound antibodies, followed by washing with cold PBS. All were fixed with 4% PFA (Electron Microscopy Sciences) in PBS for 30 min at 37°C. 0.1% Triton X-100 was added for 6.5 min to permeabilize cells, followed by addition of blocking buffer. HTR-D65–, CD44-, and CD59-treated cells were blocked with Q-PBS (PBS, 2% BSA, 0.1% lysine, and 0.01% saponin, pH 7.4), and Biotin-Tfn–treated cells were blocked with 2% casein. Surface-bound and internalized HTR-D65, CD44, and CD59 were probed with goat anti-mouse antibody conjugated with HRP (Sigma-Aldrich), and Biotin-Tfn was probed with Streptavidin-POD conjugate (Sigma-Aldrich). Color was developed using o-phenylenediamine dihydrochloride (OPD) solution (Sigma-Aldrich), and absorbance was read at 490 nm (Biotek Synergy H1 Hybrid Reader). Cell number variation among wells was accounted for by bicinchoninic acid assay reading at 562 nm.

[2] = system: CD44 uptake in ARPE/HPV cells; assay: CD44 uptake (clathrin-independent endocytosis marker); settings: TDD expression (0 ng/ml Tet), ARPE/HPV cells (Fig. 2 F)
Experimental: as §1, with “Acid wash (0.2 M acetic acid and 0.2 M NaCl, pH 2.3) was used to remove surface-bound antibodies, followed by washing with cold PBS. All were fixed with 4% PFA (Electron Microscopy Sciences) in PBS for 30 min at 37°C. 0.1% Triton X-100 was added for 6.5 min to permeabilize cells, followed by addition of blocking buffer. HTR-D65–, CD44-, and CD59-treated cells were blocked with Q-PBS (PBS, 2% BSA, 0.1% lysine, and 0.01% saponin, pH 7.4), and Biotin-Tfn–treated cells were blocked with 2% casein. Surface-bound and internalized HTR-D65, CD44, and CD59 were probed with goat anti-mouse antibody conjugated with HRP (Sigma-Aldrich), and Biotin-Tfn was probed with Streptavidin-POD conjugate (Sigma-Aldrich).” left out

[3] = system: Tfn recycling; assay: Biotin-Tfn recycling assay; settings: TDD expression (0 ng/ml Tet), ARPE/HPV cells, 10- or 30-min pulse (Fig. 2 D)
Experimental: Biotin-Tfn recycling was conducted according to previous protocols ([Chen et al., 2017]). Cells were cultured in biotin-free medium for 48 h, seeded in 96-well plates (Costar) at 60–70% confluence, and grown overnight. Before assay, cells were starved for 45 min in PBS4+ at 37°C or treated with peptides in PBS4+ at 37°C for the indicated times. After starvation, cells were supplied with 100 µl of 5 µg/ml Biotin-Tfn in PBS4+ for 10 or 30 min to load Biotin-Tfn into cells. When loading was complete, cells were cooled down to 4°C and washed with PBS4+ to remove extra Biotin-Tfn. Some cells were kept at 4°C as loading controls. The remaining cells were first treated with avidin and biocytin to mask the surface-bound Biotin-Tfn, and then incubated at 37°C for the indicated times. All the cells were then acid washed and fixed with 4% PFA as above. Blocking steps were the same as for the Biotin-Tfn uptake assay. Data were expressed as percentage of total intracellular ligand remaining relative to the initial load.

[4] = system: association of AP2 with the membrane pellet, ARPE cells; assay: Subcellular fractionation, AP2 in membrane pellet; settings: cells with TDD overexpression, n = 3; control cells 59 ± 14% (Fig. 5 E)
Experimental: Confluent ARPE or ARPE/HPV cells in a 10-cm dish were detached with 3 ml of 50 mM EDTA at 37°C for 10 min. Extra EDTA after detachment was neutralized with 0.2 ml of 1 M MgCl2. Cells were then spun down at 500 g for 3 min and washed with cold PBS. After another spin to remove PBS, cells were resuspended in 0.5 ml ice-cold lysis buffer (25 mM Hepes, 250 mM sucrose, 1 mM MgCl2, and 2 mM EGTA, pH 7.4). Cells were then lysed by five rounds of freeze–thaw cycle (rapid freezing in liquid nitrogen and slow thawing in room temperature water bath, followed by brief vortex and 10-s sonication). Intact cells and nuclei were removed by centrifugation for 2 min at 500 g. 0.1 ml of lysed sample was kept as total control, and the rest (0.4 ml) underwent ultracentrifugation at 4°C for 30 min at 110,000 g to separate membranes (pellet) from cytosol (supernatant). Supernatant was transferred to another low binding Eppendorf, and the pellet was resuspended with the same volume of lysis buffer (0.4 ml). Total, pellet, and supernatant were heat denatured in 1× sample buffer and probed by Western blotting.

[5] = system: ARPE/HPV eGFP-CLCa cells; assay: TIRFM CCP dynamics with TDD/TD overexpression; settings: TIRFM and cmeAnalysis (Fig. 3 C, Fig. 4 C)
Experimental: Cells were seeded on a gelatin-coated 22 × 22–mm cover glass (Corning; 2850-22) overnight and moved to fresh cell culture medium 30 min before being mounted on a 25 × 75–mm slide (Thermo Fisher Scientific; 3050). Imaging was conducted with a 60×, 1.49-NA Apo TIRF objective (Nikon) mounted on a Ti-Eclipse inverted microscope. Perfect focus was used during time-lapse imaging. TIRF penetration depth was ∼80 nm. Videos were acquired for 7.5 min at the rate of 1 frame/s for all live-cell imaging. For dual-color imaging, two sequential images of primary and secondary channel were taken within 1 s, and the video length was the same as single-channel imaging. Published cmeAnalysis software was used for CCP detection, tracking, and quantification ([Aguet et al., 2013]; [Jaqaman et al., 2008]; [Loerke et al., 2011]).

[6] = system: fluid phase uptake of HRP in ARPE/HPV cells; assay: Fluid-phase uptake of HRP; settings: TDD expression (0 ng/ml Tet), ARPE/HPV cells (Fig. 2 E)
Experimental: Fluid-phase uptake assays were conducted using HRP (Sigma-Aldrich) as the readout. Cells were seeded in 96-well plates (Costar) at 60–70% confluence and grown overnight. Before assay, cell culture medium was changed to PBS4+ and cooled down to 4°C. Ice-cold HRP solution (1 mg/ml) was added to cells and moved to a 37°C water bath for 30 min. In parallel, some cells were kept at 4°C as blank control. All the cells were acid washed (0.2 M acetic acid and 0.2 M NaCl, pH 2.3) and lysed with ELISA blocking buffer (1% Triton X-100, 0.1% SDS, 0.2% BSA, 50 mM NaCl, and 1 mM Tris, pH 7.4) for 1 h at 4°C. Color was developed using OPD solution (Sigma-Aldrich), and absorbance was read at 490 nm (Biotek Synergy H1 Hybrid Reader).

[7] = system: TfnR uptake in ARPE cells; assay: TfnR uptake with TDD overexpression (Tet-off adenovirus); settings: maximum TDD expression, adenovirus-infected ARPE cells, n = 4 replicates (Fig. 2 C)
Experimental: TDD, TD, and tTA adenoviruses were applied to cells directly in culture medium. Pilot experiments were conducted to optimize the volumes of each virus preparation need for uniform infection (Fig. S1, A and B). Experiments were conducted after 12–18 h, allowing for adequate viral infection and protein expression. Protein expression could be regulated by adjusting Tet concentration. All experiments were performed in the absence of Tet, allowing for maximum protein expression, except for Fig. 1, A–C.
(§2) Internalization of TfnR, CD44, CD59, and Biotin-Tfn was quantified by in-cell ELISA following established protocols ([Conner and Schmid, 2003]; [Srinivasan et al., 2018]). Cells were seeded in 96-well plates (Costar) at 60–70% confluence and grown overnight. Before the assay, cells were starved for 30 min in PBS4+ at 37°C or treated with peptides in PBS4+ at 37°C for the indicated times. After starvation, cells were moved to 4°C, and culture medium was replaced with cold PBS4+ containing 5 µg/ml HTR-D65 (anti-TfnR mAb; [Schmid and Smythe, 1991]), anti-human CD44 or anti-human CD59 (BD PharMingen) or 5 µg/ml Biotin-Tfn (Sigma-Aldrich). […] Color was developed using o-phenylenediamine dihydrochloride (OPD) solution (Sigma-Aldrich), and absorbance was read at 490 nm (Biotek Synergy H1 Hybrid Reader). Cell number variation among wells was accounted for by bicinchoninic acid assay reading at 562 nm.

[8] = system: CD59 uptake in ARPE/HPV cells; assay: CD59 uptake (clathrin-independent endocytosis marker); settings: TDD expression (0 ng/ml Tet), ARPE/HPV cells (Fig. 2 F)
Experimental: as §2, with “(Sigma-Aldrich). For single-round assays, the above reagents were kept with cells for 20 min at 4°C and then washed out before uptake assay. For multiround assays, the above reagents were kept with cells throughout the uptake process. In parallel, some cells were kept at 4°C for the measurement of surface-bound ligands and blank controls, and some were incubated in a 37°C water bath for the indicated times.” for “(Sigma-Aldrich).”

With YGRKKRRQRRRLAGCQIINYR [Wbox1] the IC50 [1] was ~3000 nM.

B1: TDD: clathrin heavy chain fragment (residues 1–1,074): N-terminal domain plus distal leg, overexpressed by Tet-off adenovirus (protein)
chain: MAQILPIRFQEHLQLQNLGINPANIGFSTLTMESDKFICIREKVGEQAQVVIIDMNDPSNPIRRPISADSAIMNPASKVIALKAGKTLQIFNIEMKSKMKAHTMTDDVTFWKWISLNTVALVTDNAVYHWSMEGESQPVKMFDRHSSLAGCQIINYRTDAKQKWLLLTGISAQQNRVVGAMQLYSVDRKVSQPIEGHAASFAQFKMEGNAEESTLFCFAVRGQAGGKLHIIEVGTPPTGNQPFPKKAVDVFFPPEAQNDFPVAMQISEKHDVVFLITKYGYIHLYDLETGTCIYMNRISGETIFVTAPHEATAGIIGVNRKGQVLSVCVEEENIIPYITNVLQNPDLALRMAVRNNLAGAEELFARKFNALFAQGNYSEAAKVAANAPKGILRTPDTIRRFQSVPAQPGQTSPLLQYFGILLDQGQLNKYESLELCRPVLQQGRKQLLEKWLKEDKLECSEELGDLVKSVDPTLALSVYLRANVPNKVIQCFAETGQVQKIVLYAKKVGYTPDWIFLLRNVMRISPDQGQQFAQMLVQDEEPLADITQIVDVFMEYNLIQQCTAFLLDALKNNRPSEGPLQTRLLEMNLMHAPQVADAILGNQMFTHYDRAHIAQLCEKAGLLQRALEHFTDLYDIKRAVVHTHLLNPEWLVNYFGSLSVEDSLECLRAMLSANIRQNLQICVQVASKYHEQLSTQSLIELFESFKSFEGLFYFLGSIVNFSQDPDVHFKYIQAACKTGQIKEVERICRESNCYDPERVKNFLKEAKLTDQLPLIIVCDRFDFVHDLVLYLYRNNLQKYIEIYVQKVNPSRLPVVIGGLLDVDCSEDVIKNLILVVRGQFSTDELVAEVEKRNRLKLLLPWLEARIHEGCEEPATHNALAKIYIDSNNNPERFLRENPYYDSRVVGKYCEKRDPHLACVAYERGQCDLELINVCNENSLFKSLSRYLVRRKDPELWGSVLLESNPYRRPLIDQVVQTALSETQDPEEVSVTVKAFMTADLPNELIELLEKIVLDNSVFSEHRNLQNLLILTAIKADRTRVMEYINRLDNYDAPDIANIAISNELFEEAFAIFRK
modifications: left off: HA, N-terminal, kept
notes: clathrin heavy chain fragment (residues 1–1,074): N-terminal domain plus distal leg, overexpressed by Tet-off adenovirus
B1 was tested, and the “CD44 uptake (CIE)” value [2] was “not significantly inhibited”, the “recycling of Tfn” value [3] was “not significantly perturbed” and the “association of AP2 with the membrane pellet” value [4] was 76 ± 14%. For the same molecule, the CCP initiation [5] was “dramatically decreased”, the “fluid phase uptake (HRP)” value [6] was “not significantly inhibited” and the “inhibition of endocytic efficiency of TfnR” value [7] was 80%. For the same molecule, the “CD59 uptake (CIE)” value [8] was “not significantly inhibited”.

B2: TD: clathrin heavy chain N-terminal domain, generated by mutating T495 to a stop codon in TDD (protein, UniProt Q00610 1-494, looked up, fragment)
chain: MAQILPIRFQEHLQLQNLGINPANIGFSTLTMESDKFICIREKVGEQAQVVIIDMNDPSNPIRRPISADSAIMNPASKVIALKAGKTLQIFNIEMKSKMKAHTMTDDVTFWKWISLNTVALVTDNAVYHWSMEGESQPVKMFDRHSSLAGCQIINYRTDAKQKWLLLTGISAQQNRVVGAMQLYSVDRKVSQPIEGHAASFAQFKMEGNAEESTLFCFAVRGQAGGKLHIIEVGTPPTGNQPFPKKAVDVFFPPEAQNDFPVAMQISEKHDVVFLITKYGYIHLYDLETGTCIYMNRISGETIFVTAPHEATAGIIGVNRKGQVLSVCVEEENIIPYITNVLQNPDLALRMAVRNNLAGAEELFARKFNALFAQGNYSEAAKVAANAPKGILRTPDTIRRFQSVPAQPGQTSPLLQYFGILLDQGQLNKYESLELCRPVLQQGRKQLLEKWLKEDKLECSEELGDLVKSVDPTLALSVYLRANVPNKVIQCFAE
modifications: HA tag
notes: clathrin heavy chain N-terminal domain, generated by mutating T495 to a stop codon in TDD
With B2 the CCP initiation [5] was “sufficient to suppress”.
